Measured values from patent publication US20220098240A1 (FUJIFILM, published 2022).
Bridge positions count the residues as written; N and C are the ends. Square brackets hold non-standard residues; d marks the D form. Ends that are not written are not given here. COCH2 = acetyl group that carries the bridge; hCys = N[C@@H](CCS)C(=O)O; Orn = NCCC[C@H](N)C(=O)O; Dab = NCC[C@H](N)C(=O)O; Dap = NC[C@H](N)C(=O)O

Assays:
human integrin αvβ5 [1] = molecular target: T1, human integrin αvβ5 (human, UniProt P06756 31-992; P18084 24-719); experiment: SPR, Biacore 3000, peptide immobilised on CM5 chip, integrin 30-1000 nM flowed; grade C = dissociation constant more than 100 nM and 200 nM or less
T1 construct: soluble analyte in SPR at 30, 100, 300 and 1,000 nM in HEPES buffer with 5 mM magnesium chloride; heterodimer of an alpha and a beta chain
Experimental: (§1) However, only for the cyclic peptide 22, in which the number of lysine residues having an amino group as the immobilizing functional group was 1, the sample solution to be supplied to the sensor chip was set to 5,000 μL instead of 300 μL. Similarly, 70 μL of the mixed aqueous solution of 0.2 M EDC and 0.04 M NHS was added to another flow channel of the same sensor chip without immobilizing the sample, and then blocking treatment and washing treatment were carried out. Hereinafter, the obtained immobilization-treated sensor chip is referred to as an “immobilization-treated sensor chip A”.
(§2) After adding human integrin αvβ5 for 10 minutes at 25° C., which was diluted to 30 nM using a HEPES buffer solution to which magnesium chloride was added to 5 mM, in each flow channel of the immobilization-treated sensor chip A prepared in (1) above, the same HEPES buffer solution (containing 5 mM magnesium chloride) was allowed to flow as a running buffer for 30 minutes, and measurement was carried out with Biacore 3000.
Then, a regeneration treatment of removing human integrin αvβ5 was carried out by allowing a 0.5 M EDTA aqueous solution to flow through each flow channel for 10 minutes. Further, the above-described measurement process consisting of adding integrin for 10 minutes, allowing a running buffer to flow for 30 minutes, carrying out measurement with Biacore 3000, and carrying out regeneration treatment with 0.5 M EDTA aqueous solution was carried out in the same manner for 100 nM human integrin αvβ5, 300 nM human integrin αvβ5, and 1,000 nM human integrin αvβ5. Dissociation constant between the cyclic peptide and human integrin αvβ5 was calculated from the difference between the value measured by Biacore 3000 in the flow channel immobilized with the cyclic peptide and the value measured by Biacore 3000 in the flow channel unimmobilized with the cyclic peptide, in a case where each concentration of human integrin αvβ5 was allowed to flow, and the integrin binding property was evaluated according to the following evaluation standards. […]

human integrin αvβ5 [2] = molecular target: T1, human integrin αvβ5; experiment: SPR, Biacore 3000, peptide immobilised on CM5 chip, integrin 30-1000 nM flowed; grade B = dissociation constant more than 50 nM and 100 nM or less
Experimental: as §1, §2
Then, a regeneration treatment of removing human integrin αvβ5 was carried out by allowing a 0.5 M EDTA aqueous solution to flow through each flow channel for 10 minutes. Further, the above-described measurement process consisting of adding integrin for 10 minutes, allowing a running buffer to flow for 30 minutes, carrying out measurement with Biacore 3000, and carrying out regeneration treatment with 0.5 M EDTA aqueous solution was carried out in the same manner for 100 nM human integrin αvβ5, 300 nM human integrin αvβ5, and 1,000 nM human integrin αvβ5. Dissociation constant between the cyclic peptide and human integrin αvβ5 was calculated from the difference between the value measured by Biacore 3000 in the flow channel immobilized with the cyclic peptide and the value measured by Biacore 3000 in the flow channel unimmobilized with the cyclic peptide, in a case where each concentration of human integrin αvβ5 was allowed to flow, and the integrin binding property was evaluated according to the following evaluation standards. It is preferable that the evaluation result satisfies the evaluation standard A, B, or C.

T1 sequence (P06756 31-992, chain 1 of 2): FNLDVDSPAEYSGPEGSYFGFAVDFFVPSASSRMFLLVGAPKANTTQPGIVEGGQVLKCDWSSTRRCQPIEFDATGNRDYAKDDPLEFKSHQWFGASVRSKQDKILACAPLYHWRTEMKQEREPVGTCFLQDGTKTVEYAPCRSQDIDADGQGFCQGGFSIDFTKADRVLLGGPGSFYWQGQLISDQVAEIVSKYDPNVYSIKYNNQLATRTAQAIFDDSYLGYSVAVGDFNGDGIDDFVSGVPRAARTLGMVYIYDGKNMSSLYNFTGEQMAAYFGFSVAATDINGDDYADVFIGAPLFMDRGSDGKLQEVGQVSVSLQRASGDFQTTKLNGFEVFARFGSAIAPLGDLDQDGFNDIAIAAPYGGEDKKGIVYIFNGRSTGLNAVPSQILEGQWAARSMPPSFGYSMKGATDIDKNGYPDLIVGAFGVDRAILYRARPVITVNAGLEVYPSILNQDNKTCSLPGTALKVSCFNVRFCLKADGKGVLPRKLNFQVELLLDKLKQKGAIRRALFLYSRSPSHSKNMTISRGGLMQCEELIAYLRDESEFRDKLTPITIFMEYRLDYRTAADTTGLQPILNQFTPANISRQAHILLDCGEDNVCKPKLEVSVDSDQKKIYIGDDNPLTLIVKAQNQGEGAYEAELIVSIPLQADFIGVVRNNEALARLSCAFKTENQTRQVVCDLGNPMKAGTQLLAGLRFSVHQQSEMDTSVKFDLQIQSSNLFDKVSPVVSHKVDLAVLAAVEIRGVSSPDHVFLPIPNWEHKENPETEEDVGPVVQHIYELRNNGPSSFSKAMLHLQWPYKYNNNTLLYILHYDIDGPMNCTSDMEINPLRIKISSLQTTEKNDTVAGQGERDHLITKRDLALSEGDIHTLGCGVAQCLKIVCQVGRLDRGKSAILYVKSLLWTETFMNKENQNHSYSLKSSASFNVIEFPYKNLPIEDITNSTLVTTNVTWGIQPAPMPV
T1 sequence (P18084 24-719, chain 2 of 2): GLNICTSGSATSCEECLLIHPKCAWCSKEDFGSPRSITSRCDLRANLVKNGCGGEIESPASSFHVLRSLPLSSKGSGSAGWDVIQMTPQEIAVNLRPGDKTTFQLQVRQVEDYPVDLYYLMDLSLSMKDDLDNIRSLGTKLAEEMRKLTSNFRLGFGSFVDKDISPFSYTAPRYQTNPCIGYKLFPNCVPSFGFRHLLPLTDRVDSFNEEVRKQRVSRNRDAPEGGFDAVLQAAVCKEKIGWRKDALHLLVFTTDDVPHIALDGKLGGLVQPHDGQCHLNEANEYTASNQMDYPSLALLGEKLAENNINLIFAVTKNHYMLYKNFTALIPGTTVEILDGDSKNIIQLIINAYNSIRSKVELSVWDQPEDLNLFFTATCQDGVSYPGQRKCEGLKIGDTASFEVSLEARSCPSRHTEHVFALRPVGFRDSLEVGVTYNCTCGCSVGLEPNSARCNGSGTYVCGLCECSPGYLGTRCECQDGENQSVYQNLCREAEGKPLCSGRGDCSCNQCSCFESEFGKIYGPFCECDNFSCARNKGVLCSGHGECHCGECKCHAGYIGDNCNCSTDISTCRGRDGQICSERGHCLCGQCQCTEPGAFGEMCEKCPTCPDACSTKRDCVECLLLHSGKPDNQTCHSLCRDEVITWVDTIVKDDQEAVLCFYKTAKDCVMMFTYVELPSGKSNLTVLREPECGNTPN

| dissociation constant (KD) (human integrin αvβ5 [2]) [nM] | Binder | other results |
| --- | --- | --- |
| – | {CH2CO}-ICRGD[Dap](COCH2)FCKKK (thioether 2-6 via Ac; thioether N-8, bicyclic; all residues L; immobilised on CM5 chip through amino groups) [Cyclic peptide 6] | dissociation constant (KD) (human integrin αvβ5 [1]): 100 to 200 nM |
| 50 to 100 | XXRGDXFCKKK (not fully specified; thioether: I1 alpha-NH2 through acetyl to C8; thioether: Dap(acetyl)2 to Hcy6, bicyclic; all residues L; immobilised on CM5 chip through amino groups) [Cyclic peptide 13] | – |
| – | {CH2CO}-I[Dab](COCH2)RGD[hCys]F[hCys]KKK (thioether 2-6, N-8) [Cyclic peptide 2] | dissociation constant (KD) (human integrin αvβ5 [1]): 100 to 200 nM |
| – | {CH2CO}-I[hCys]RGDK(COCH2)FR[hCys]KKK (thioether 2-6, N-9) [Cyclic peptide 33] | dissociation constant (human integrin αvβ5 [1]): 100 to 200 nM |
| 50 to 100 | {CH2CO}-I[hCys]RGD[Dab](COCH2)FCKKK (thioether 2-6 via Ac; thioether N-8; not fully specified, bicyclic; all residues L; immobilised on CM5 chip through amino groups) [Cyclic peptide 19] | – |
| 50 to 100 | ICRGD[Orn]FCKKK (bridge N-8, 2-6; not fully specified (residue 6, N-terminus, bridges), bicyclic; all residues L; immobilised on CM5 chip through amino groups) [Cyclic peptide 10] | – |
| 50 to 100 | {CH2CO}-I[hCys]RGD[Dab]F[hCys]KKK (thioether N-8; bridge 2-6; not fully specified (residue 6, bridges); printed as I- -RGD F-(Hcy)-KKK) [Cyclic peptide 7] | – |
| 50 to 100 | {CH2CO}-I[hCys]RGD[Orn](COCH2)F[hCys]KKK (thioether 2-6, N-8) [Cyclic peptide 9] | – |
